Measured values reported in patent US20230374484.

T1: activated clotting factor VIII (fVIIIa), P00451
T1 chain: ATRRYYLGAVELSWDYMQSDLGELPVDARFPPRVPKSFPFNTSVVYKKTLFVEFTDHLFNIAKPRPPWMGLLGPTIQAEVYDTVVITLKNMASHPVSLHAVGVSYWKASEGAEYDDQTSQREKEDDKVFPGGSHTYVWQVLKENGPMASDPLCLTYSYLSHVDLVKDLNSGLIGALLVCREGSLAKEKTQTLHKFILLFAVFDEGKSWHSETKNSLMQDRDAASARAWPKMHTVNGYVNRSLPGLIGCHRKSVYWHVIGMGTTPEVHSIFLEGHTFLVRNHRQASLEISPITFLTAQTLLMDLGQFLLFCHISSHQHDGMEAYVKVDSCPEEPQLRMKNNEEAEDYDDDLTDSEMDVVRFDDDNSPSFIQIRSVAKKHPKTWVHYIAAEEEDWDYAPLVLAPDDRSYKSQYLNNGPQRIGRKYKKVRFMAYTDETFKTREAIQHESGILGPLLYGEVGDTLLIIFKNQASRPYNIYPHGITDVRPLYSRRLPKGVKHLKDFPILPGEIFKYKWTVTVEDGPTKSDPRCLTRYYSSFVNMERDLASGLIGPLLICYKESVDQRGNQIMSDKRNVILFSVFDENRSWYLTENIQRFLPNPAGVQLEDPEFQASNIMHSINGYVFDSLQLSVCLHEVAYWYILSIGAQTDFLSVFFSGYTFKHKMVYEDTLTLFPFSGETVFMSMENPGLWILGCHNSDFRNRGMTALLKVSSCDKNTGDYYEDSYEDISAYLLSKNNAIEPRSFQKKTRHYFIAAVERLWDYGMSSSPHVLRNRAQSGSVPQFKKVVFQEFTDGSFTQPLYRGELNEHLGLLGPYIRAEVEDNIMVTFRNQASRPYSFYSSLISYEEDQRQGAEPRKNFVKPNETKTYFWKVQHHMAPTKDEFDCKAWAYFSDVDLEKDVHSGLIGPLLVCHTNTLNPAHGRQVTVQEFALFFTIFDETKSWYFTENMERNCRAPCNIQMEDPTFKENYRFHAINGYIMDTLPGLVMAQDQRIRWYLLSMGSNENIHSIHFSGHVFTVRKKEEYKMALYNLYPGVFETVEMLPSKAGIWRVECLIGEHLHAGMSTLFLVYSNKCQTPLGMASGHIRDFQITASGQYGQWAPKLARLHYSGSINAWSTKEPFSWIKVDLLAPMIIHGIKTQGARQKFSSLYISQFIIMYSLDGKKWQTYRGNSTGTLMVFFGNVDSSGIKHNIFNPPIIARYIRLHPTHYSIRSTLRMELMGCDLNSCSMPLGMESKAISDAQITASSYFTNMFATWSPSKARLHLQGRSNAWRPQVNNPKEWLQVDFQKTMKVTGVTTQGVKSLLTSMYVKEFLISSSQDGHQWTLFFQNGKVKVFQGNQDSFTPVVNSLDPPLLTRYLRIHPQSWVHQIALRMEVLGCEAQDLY

B1: An96 fIX (ancestral sequence 96 factor IX) (protein)
chain: YNSGKLEEFVRGNLERECIEEKCSFEEAREVFENTEKTTEFWKQYVDGDQCESNPCLNGGSCKDDINSYECWCRFGFEGKNCELDATCSIKNGRCKQFCKKSADNKVVCSCTEGYRLAEDQKSCEPAVPFPCGRVSVSHTSKKLTRAETIFSNMDYENSTEAETILDNVTQSTQSFNDFTRVVGGENAKPGQFPWQVLLNGKIDAFCGGSIINEKWVVTAAHCIEPGVKITVVAGEHNIEKTEPTEQKRNVIRVIPHHNYNATINKYSHDIALLELDKPLTLNSYVTPICIANREYTNIFLKFGSGYVSGWGRVFNRGRSASILQYLRVPLVDRATCLRSTKFTIYNNMFCAGYHEGGKDSCQGDSGGPHVTEVEGTSFLTGIISWGEECAMKGKYGIYTKVSRYVNWIKEKTKLT
B2: fIX optimized sequence Beta (no Padua) (protein)
chain: YNSGKLEEFVQGNLERECMEEKCSFEEAREVFENTERTTEFWKQYVDGDQCESNPCLNGGSCKDDINSYECWCPFGFEGKNCELDATCNIKNGRCEQFCKNSADNKVVCSCTEGYRLAENQKSCEPAVPFPCGRVSVSQTSKLTRAETVFPDVDYVNSTEAETILDNITQSTQSFNDFTRVVGGEDAKPGQFPWQVVLNGKVDAFCGGSIVNEKWIVTAAHCVETGVKITVVAGEHNIEETEHTEQKRNVIRIIPHHNYNAAINKYNHDIALLELDEPLVLNSYVTPICIANKEYTNIFLKFGSGYVSGWGRVFHRGRSASVLQYLRVPLVDRATCLRSTKFTIYNNMFCAGFHEGGRDSCQGDSGGPHVTEVEGTSFLTGIISWGEECAMKGKYGIYTKVSRYVNWIKEKTKLT
B3: fIX optimized sequence Gamma (no Padua) (protein)
chain: YNSGKLEEFVQGNLERECMEEKCSFEEAREVFENTERTTEFWKQYVDGDQCESNPCLNGGSCKDDINSYECWCPFGFEGKNCELDATCNIKNGRCEQFCKNSADNKVVCSCTEGYRLAENQKSCEPAVPFPCGRVSVSQTSKLTRAETVFPDVDYVNSTEAETILDNITQSTQSFNDFTRVVGGEDAKPGQFPWQVVLNGKVDAFCGGSIVNEKWIVTAAHCVETGVKITVVAGEHNIEETEHTEQKRNVIRIIPHHNYNAAINKYNHDIALLELDKPLVLNSYVTPICIANKEYTNIFLKFGSGYVSGWGRVFHRGRSASVLQYLRVPLVDRATCLRSTKFTIYNNMFCAGFHEGGRDSCQGDSGGPHVTEVEGTSFLTGIISWGEECAMKGKYGIYTKVSRYVNWIKEKTKLT
B4: fIX optimized sequence Gamma (with Padua) (protein)
chain: YNSGKLEEFVQGNLERECMEEKCSFEEAREVFENTERTTEFWKQYVDGDQCESNPCLNGGSCKDDINSYECWCPFGFEGKNCELDATCNIKNGRCEQFCKNSADNKVVCSCTEGYRLAENQKSCEPAVPFPCGRVSVSQTSKLTRAETVFPDVDYVNSTEAETILDNITQSTQSFNDFTRVVGGEDAKPGQFPWQVVLNGKVDAFCGGSIVNEKWIVTAAHCVETGVKITVVAGEHNIEETEHTEQKRNVIRIIPHHNYNAAINKYNHDIALLELDKPLVLNSYVTPICIANKEYTNIFLKFGSGYVSGWGRVFHRGRSASVLQYLRVPLVDRATCLLSTKFTIYNNMFCAGFHEGGRDSCQGDSGGPHVTEVEGTSFLTGIISWGEECAMKGKYGIYTKVSRYVNWIKEKTKLT
B5: fIX optimized sequence Beta (with Padua) (protein)
chain: YNSGKLEEFVQGNLERECMEEKCSFEEAREVFENTERTTEFWKQYVDGDQCESNPCLNGGSCKDDINSYECWCPFGFEGKNCELDATCNIKNGRCEQFCKNSADNKVVCSCTEGYRLAENQKSCEPAVPFPCGRVSVSQTSKLTRAETVFPDVDYVNSTEAETILDNITQSTQSFNDFTRVVGGEDAKPGQFPWQVVLNGKVDAFCGGSIVNEKWIVTAAHCVETGVKITVVAGEHNIEETEHTEQKRNVIRIIPHHNYNAAINKYNHDIALLELDEPLVLNSYVTPICIANKEYTNIFLKFGSGYVSGWGRVFHRGRSASVLQYLRVPLVDRATCLLSTKFTIYNNMFCAGFHEGGRDSCQGDSGGPHVTEVEGTSFLTGIISWGEECAMKGKYGIYTKVSRYVNWIKEKTKLT
B6: fIX optimized sequence Delta (no Padua) (protein)
chain: YNSGKLEEFVQGNLERECMEEKCSFEEAREVFENTERTTEFWKQYVDGDQCESNPCLNGGSCKDDINSYECWCPFGFEGKNCELDATCNIKNGRCEQFCKNSADNKVVCSCTEGYRLAENQKSCEPAVPFPCGRVSVSQTSKLTRAETVFPDVDYVNSTEAETILDNITQSTQSFNDFTRVVGGEDAKPGQFPWQVVLNGKVDAFCGGSIVNEKWIVTAAHCVETGVKITVVAGEHNIEETEHTEQKRNVIRIIPHHNYNAAINKYNHDIALLELDKPLTLNSYVTPICIANREYTNIFLKFGSGYVSGWGRVFHRGRSASVLQYLRVPLVDRATCLRSTKFTIYNNMFCAGFHEGGRDSCQGDSGGPHVTEVEGTSFLTGIISWGEECAMKGKYGIYTKVSRYVNWIKEKTKLT

Biological target: T1, activated clotting factor VIII …

fIX activity (one-stage APTT-dependent coagulation assay), exhibits higher fIX activity:
B1
B2
B3
B4
B5
B6
